Blank lines part the entries; values can stand above or below the substance they belong to.
Assays:
CD19-BBZ CAR on T cells = test: flow cytometry; T cells one day after CD19-BBZ CAR mRNA electroporation, stained with anti-mouse IgG Fab antibody
[1] = biological target: Folate receptor alpha on cells (SKOV3, A1847, T47D, 293T, IOSE6) (human) (UniProt P15328); test: cell-based or functional assay
[2] = biological target: biotin-labeled recombinant FRa protein (R&D Systems, Inc) (UniProt P15328); test: flow cytometry; transduced primary human T cells stained with biotin-labeled recombinant FRA protein, then SA-PE; plotted against CD8
Chain of biotin-labeled recombinant FRa protein (R&D Systems, Inc) (P15328 25-233 limits assumed): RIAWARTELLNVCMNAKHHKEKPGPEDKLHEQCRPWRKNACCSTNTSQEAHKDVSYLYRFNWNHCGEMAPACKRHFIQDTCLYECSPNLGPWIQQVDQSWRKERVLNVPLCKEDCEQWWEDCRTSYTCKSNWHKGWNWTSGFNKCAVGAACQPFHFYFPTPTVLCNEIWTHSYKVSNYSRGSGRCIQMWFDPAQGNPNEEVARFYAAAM

[3] = biological target: Recombinant mesothelin-extracellular domain protein on beads (UniProt Q13421); test: cell-based or functional assay
Chain of Recombinant mesothelin-extracellular domain protein on beads (Q13421 other isoform, or with tags, fused parts or gaps limits assumed): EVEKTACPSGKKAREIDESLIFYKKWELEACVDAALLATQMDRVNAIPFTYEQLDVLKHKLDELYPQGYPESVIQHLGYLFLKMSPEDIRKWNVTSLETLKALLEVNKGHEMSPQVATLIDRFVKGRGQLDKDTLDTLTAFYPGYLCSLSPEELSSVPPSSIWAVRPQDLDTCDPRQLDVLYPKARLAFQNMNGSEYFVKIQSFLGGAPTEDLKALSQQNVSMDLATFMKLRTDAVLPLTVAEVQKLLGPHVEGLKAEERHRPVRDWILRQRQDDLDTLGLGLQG

Chain of Folate receptor alpha on cells (SKOV3, A1847, T47D, 293T, IOSE6) (human) (P15328 25-234, stated change not applied): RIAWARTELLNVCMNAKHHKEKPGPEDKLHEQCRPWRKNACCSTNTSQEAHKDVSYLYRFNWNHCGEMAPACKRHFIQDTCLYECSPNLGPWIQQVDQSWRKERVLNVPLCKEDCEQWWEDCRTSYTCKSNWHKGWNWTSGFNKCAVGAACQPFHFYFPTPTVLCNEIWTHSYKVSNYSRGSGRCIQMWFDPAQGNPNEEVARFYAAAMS

percent of cells in the CAR-positive gate (CD19-BBZ CAR on T cells): 98.5
Substance: anti-mouse IgG Fab antibody (detection reagent for the 19BBZ panel)

surface CAR expression after exposure to SKOV3 cells [1]: 1 % of T cells
percent of cells CD8+ and FRA CAR+ (upper right quadrant) [2]: 41.2%
percent of cells CD8- and FRA CAR+ (lower right quadrant) [2]: 31.3%
Substance: MOv19-27z CAR on human T cells

% IFN-γ cytokine-producing cells after 6 hours with coated beads (flow cytometry) [3]: 7%
Substance: anti-mesothelin CAR (mesoCAR, SS1 BBZ) on wild-type mouse T cells

From patent US20200283729A1
